The supplement of paper PMC9112550, “Optimization of the antimicrobial peptide Bac7 by deep mutational scanning” (BMC Biology, 2022)

Tested on: Escherichia coli TOP10
Experiment: shrunken log2 fold change of peptide-encoding DNA abundance (4.5 h post-induction vs induction); higher = less antimicrobial activity (less host growth inhibition)
Conditions: time post-induction: 4.5 h; library: site-saturation at positions 5, 18, 19, 20
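Note: peptides expressed intracellularly from a pBAD plasmid library in pooled LB shake-flask culture, induced with 0.3% L-arabinose, DNA abundance read by NGS, three biological replicates, DESeq2 with apeglm shrinkage.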

RRIRDRPPRLPRPRPRPDEDPRP
shrunken log2 fold change: 1.46

RRIRWRPPRLPRPRPRPNSQPRP
shrunken log2 fold change: -0.0188

RRIRTRPPRLPRPRPRPVKMPRP
shrunken log2 fold change: -0.0502

RRIRPRPPRLPRPRPRPYTPPRP
shrunken log2 fold change: -0.447

RRIRDRPPRLPRPRPRPQTNPRP
shrunken log2 fold change: 0.118

RRIRWRPPRLPRPRPRPFESPRP
shrunken log2 fold change: -0.0622

RRIRGRPPRLPRPRPRPMGRPRP
shrunken log2 fold change: 0.28

RRIRMRPPRLPRPRPRPGWYPRP
shrunken log2 fold change: -0.277

RRIRVRPPRLPRPRPRPQKHPRP
shrunken log2 fold change: -0.247

RRIRARPPRLPRPRPRPIHRPRP
shrunken log2 fold change: -0.26

RRIRFRPPRLPRPRPRPFVCPRP
shrunken log2 fold change: -0.398

RRIRPRPPRLPRPRPRPQQRPRP
shrunken log2 fold change: 0.0201

RRIRARPPRLPRPRPRPNGIPRP
shrunken log2 fold change: -0.109

RRIRFRPPRLPRPRPRPKNLPRP
shrunken log2 fold change: -0.225

RRIRMRPPRLPRPRPRPAGEPRP
shrunken log2 fold change: 1.87

RRIRERPPRLPRPRPRPISEPRP
shrunken log2 fold change: -0.0562

RRIRFRPPRLPRPRPRPWFPPRP
shrunken log2 fold change: -0.0773

RRIRARPPRLPRPRPRPKHTPRP
shrunken log2 fold change: 0.264

RRIRNRPPRLPRPRPRPKVQPRP
shrunken log2 fold change: 0.341

RRIRFRPPRLPRPRPRPKAAPRP
shrunken log2 fold change: 0.264

RRIRERPPRLPRPRPRPIHLPRP
shrunken log2 fold change: -0.0986

RRIRTRPPRLPRPRPRPNFRPRP
shrunken log2 fold change: -0.152

RRIRDRPPRLPRPRPRPSEYPRP
shrunken log2 fold change: -0.0118

RRIRMRPPRLPRPRPRPYYFPRP
shrunken log2 fold change: -0.537

RRIRRRPPRLPRPRPRPYWAPRP
shrunken log2 fold change: -0.199

RRIRDRPPRLPRPRPRPVSNPRP
shrunken log2 fold change: 0.00716

RRIRGRPPRLPRPRPRPVGRPRP
shrunken log2 fold change: 0.842

RRIRQRPPRLPRPRPRPHMLPRP
shrunken log2 fold change: -1.18

RRIRVRPPRLPRPRPRPIHWPRP
shrunken log2 fold change: -0.131

RRIRWRPPRLPRPRPRPINIPRP
shrunken log2 fold change: -1.2

RRIRYRPPRLPRPRPRPWLHPRP
shrunken log2 fold change: -0.991

RRIRVRPPRLPRPRPRPNLCPRP
shrunken log2 fold change: -0.292

RRIRDRPPRLPRPRPRPETDPRP
shrunken log2 fold change: 0.0208

RRIRRRPPRLPRPRPRPSFRPRP
shrunken log2 fold change: -0.0185

RRIRARPPRLPRPRPRPEFLPRP
shrunken log2 fold change: 0.465

RRIRERPPRLPRPRPRPKPHPRP
shrunken log2 fold change: 0.000708

RRIRARPPRLPRPRPRPDHEPRP
shrunken log2 fold change: -0.0137

RRIRHRPPRLPRPRPRPLAEPRP
shrunken log2 fold change: 0.243

RRIRARPPRLPRPRPRPSAGPRP
shrunken log2 fold change: 0.65

RRIRMRPPRLPRPRPRPCLTPRP
shrunken log2 fold change: 0.000866

RRIRSRPPRLPRPRPRPKYCPRP
shrunken log2 fold change: -0.263

RRIRRRPPRLPRPRPRPELIPRP
shrunken log2 fold change: 0.0314

RRIRKRPPRLPRPRPRPASPPRP
shrunken log2 fold change: 0.122

RRIRQRPPRLPRPRPRPMFSPRP
shrunken log2 fold change: 0.0442

RRIRCRPPRLPRPRPRPYQFPRP
shrunken log2 fold change: -0.0218

RRIRDRPPRLPRPRPRPDKLPRP
shrunken log2 fold change: -0.0536

RRIRCRPPRLPRPRPRPFKPPRP
shrunken log2 fold change: -0.302

RRIRERPPRLPRPRPRPKFLPRP
shrunken log2 fold change: -0.219

RRIRMRPPRLPRPRPRPKRNPRP
shrunken log2 fold change: 1.66

RRIRQRPPRLPRPRPRPLVYPRP
shrunken log2 fold change: -0.737

RRIRNRPPRLPRPRPRPKQYPRP
shrunken log2 fold change: -0.426

RRIRVRPPRLPRPRPRPFHIPRP
shrunken log2 fold change: -0.527

RRIRARPPRLPRPRPRPINCPRP
shrunken log2 fold change: -0.0513

RRIRVRPPRLPRPRPRPDYYPRP
shrunken log2 fold change: -0.679

RRIRRRPPRLPRPRPRPDWIPRP
shrunken log2 fold change: -0.223

RRIRERPPRLPRPRPRPPWKPRP
shrunken log2 fold change: 0.0356

RRIRKRPPRLPRPRPRPLPSPRP
shrunken log2 fold change: 0.0447

RRIRFRPPRLPRPRPRPGETPRP
shrunken log2 fold change: 0.138

RRIRSRPPRLPRPRPRPVNFPRP
shrunken log2 fold change: -0.262

RRIRWRPPRLPRPRPRPPFNPRP
shrunken log2 fold change: 0.31
